Assay [1] has as its target human BLyS (full length, arginine to histidine at position 132) on CHO-K1 cells (human) (UniProt Q9Y275). Description: flow cytometry, CHO-K1 hBLyS cells, antibody 2.67 nM.
In assay [2] the target is biotinylated hBLyS-ECD (human) (UniProt Q9Y275). Description: blocking ELISA: biotinylated hBLyS-ECD on coated BAFF R, antibody 100 nM. (In general: ELISA stands for enzyme-linked immunosorbent assay.)
Target sequence in this assay (Q9Y275 134-285): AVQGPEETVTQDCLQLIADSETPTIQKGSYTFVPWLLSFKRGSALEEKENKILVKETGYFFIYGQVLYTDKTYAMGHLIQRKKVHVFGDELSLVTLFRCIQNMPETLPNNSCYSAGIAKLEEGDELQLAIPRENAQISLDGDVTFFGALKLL
The target in assay [3] is cynomolgus BLyS (full length, arginine to histidine at position 132) on CHO-K1 cells (cynomolgus). Description: flow cytometry, CHO-K1 cynoBLyS cells, antibody 0.00427 nM.
Chain of cynomolgus BLyS (full length, arginine to histidine at position 132) on CHO-K1 cells (cynomolgus) (Q9Y275 other isoform, or with tags, fused parts or gaps limits assumed): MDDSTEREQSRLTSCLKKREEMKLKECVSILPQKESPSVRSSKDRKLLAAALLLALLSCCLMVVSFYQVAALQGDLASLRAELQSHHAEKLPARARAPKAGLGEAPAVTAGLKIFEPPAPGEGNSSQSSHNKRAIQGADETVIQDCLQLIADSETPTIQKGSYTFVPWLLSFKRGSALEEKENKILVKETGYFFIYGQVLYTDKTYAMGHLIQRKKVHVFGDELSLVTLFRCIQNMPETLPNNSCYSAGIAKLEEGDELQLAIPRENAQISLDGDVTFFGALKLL
Assay [4] concerns the target biotinylated hBLyS-ECD (human) (UniProt Q9Y275). Briefly: ELISA, biotinylated hBLyS-ECD captured on streptavidin; antibody 0.00427 nM.
Target sequence in this assay (Q9Y275 134-285): as the sequence (Q9Y275 134-285) above
For assay [5] the target is unchanged. Description: ELISA, biotinylated hBLyS-ECD captured on streptavidin; antibody 0.0213 nM.
Target sequence in this assay (Q9Y275 134-285): as above
The target in assay [6] is human BLyS (full length, arginine to histidine at position 132) on CHO-K1 cells (human) (UniProt Q9Y275). Briefly: flow cytometry, CHO-K1 hBLyS cells, antibody 0.534 nM. (In general: A flow cytometer gives signals particle by particle.)
Chain of human BLyS (full length, arginine to histidine at position 132) on CHO-K1 cells (human) (Q9Y275 whole entry R130H, the tested form may be a part): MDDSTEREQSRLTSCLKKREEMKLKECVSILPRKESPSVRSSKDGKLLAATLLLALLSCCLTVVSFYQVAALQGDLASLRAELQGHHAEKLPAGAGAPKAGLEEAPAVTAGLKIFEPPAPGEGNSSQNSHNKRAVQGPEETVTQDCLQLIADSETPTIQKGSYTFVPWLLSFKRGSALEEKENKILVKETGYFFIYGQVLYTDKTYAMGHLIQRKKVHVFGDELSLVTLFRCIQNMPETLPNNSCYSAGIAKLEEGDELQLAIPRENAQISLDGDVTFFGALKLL
Assay [7] has as its target biotinylated hBLyS-ECD (human) (UniProt Q9Y275). Briefly: ELISA, biotinylated hBLyS-ECD captured on streptavidin; antibody 2.67 nM.
Assay [8] has the same target. Briefly: ELISA, biotinylated hBLyS-ECD captured on streptavidin; antibody 66.7 nM.
Target sequence in this assay (Q9Y275 134-285): as the sequence (Q9Y275 134-285) above
Assay [9] addresses T1, biotinylated hBLyS-ECD (human, UniProt Q9Y275 134-285, biotinylated with Biotin-X-X-NHS (molar ratio 7:1); sites not stated).
T1 construct: also called biotinylated immunogen; biotinylated hBLvS-ECD
Description: ELISA on captured biotinylated hBLyS-ECD; antibody 0.107 nM.

Assay [10] has as its target T1, biotinylated hBLyS-ECD. Description: ELISA on captured biotinylated hBLyS-ECD; antibody 13.3 nM.
Assay [11] concerns the target T1, biotinylated hBLyS-ECD. The description is as above. The source holds these as a separate data set.
For assay [12], the target named is T1, biotinylated hBLyS-ECD. Description: ELISA on captured biotinylated hBLyS-ECD; antibody 0.534 nM.
Assay [13] concerns the target T1, biotinylated hBLyS-ECD. Briefly: ELISA on captured biotinylated hBLyS-ECD; antibody 0.00427 nM.
The target of assay [14] is T1, biotinylated hBLyS-ECD. Briefly: BAFF R-coated ELISA, biotinylated hBLyS-ECD bound in presence of antibody 0.16 nM.
Assay [15] has as its target T1, biotinylated hBLyS-ECD. Briefly: ELISA on captured biotinylated hBLyS-ECD; antibody 2.67 nM.
For assay [16], the target named is T1, biotinylated hBLyS-ECD. Description: ELISA on captured biotinylated hBLyS-ECD; antibody 0.00427 nM. This is another data set of the same source.
Assay [17] addresses T2, extracellular domain of human BLyS protein (hBLyS-ECD), His-tagged, Ala134-Leu285 (human, UniProt Q9Y275 134-285).
T2 construct: Expressed in HEK293 cells and purified on a Ni column; also called immunogen
Briefly: SPR (Biacore), antibody captured by anti-human Fc, hBLyS-ECD as analyte.

Assay [18] concerns the target T1, biotinylated hBLyS-ECD. Briefly: ELISA on captured biotinylated hBLyS-ECD; antibody 0.0213 nM.
In assay [19] the target is T3, biotinylated hBLyS-ECD (human, UniProt Q9Y275 134-285, biotinylated with Biotin-X-X-NHS (molar ratio 7:1), sites not stated).
T3 construct: The hBLyS-ECD of Embodiment 1 after biotinylation (Embodiment 2); also called biotinylated immunogen; BLyS protein; not shown: His tag of the pCPC vector
T3 sequence (Q9Y275 134-285): as above
Description: ELISA: biotinylated hBLyS-ECD captured on streptavidin, antibody titrated, HRP secondary antibody [label printed at the top of D00004]. As for the experimental part:
Streptavidin was first diluted to a final concentration of 1.0 μg/mL with PBS, and then 50 μL of diluted streptavidin per well was aliquoted into 96-well ELISA plate, which was subsequently sealed with plastic film and incubated at 4° C. overnight. On the next day the plate was washed four times with the plate washing buffer [PBS buffer containing 0.05% (v/v) Tween20] and added with the blocking solution [PBS buffer containing 0.05% (v/v) Tween20 and 1% (w/w) BSA] and blocked for 2 hours at 37° C. The blocking solution was removed, the biotinylated hBLyS-ECD prepared in Embodiment 2 was diluted with PBS to a final concentration of 50 ng/mL and then aliquoted into the 96-well ELISA plate at 50 μL per well and incubated for 1 hour at 37° C. After rinsing the plate four times with the plate washing buffer [PBS buffer containing 0.05% (v/v) Tween20], 100 μl of the purified lead antibody harvested in Embodiment 1 and 2 was pipetted into each well. After incubation for 1 hour at 37° C., the plate was rinsed four times with the plate washing buffer [PBS buffer containing 0.05% (v/v) Tween20]. HRP-labeled (horseradish peroxidase) secondary antibody (purchased from Sigma) was added in and incubated at 37° C. for 1 hour. The plate was then rinsed four times with the plate washing buffer [PBS buffer containing 0.05% (v/v) Tween20]. 100 μL of TMB substrate was aliquoted into each well and after incubation for 5 minutes at room temperature, 100 μL of stop solution (1.0 N HCl) was aliquoted into each well. A₄₅₀ₙₘ values were read via an ELISA plate reader (SpectraMax M5e purchased from Molecular Devices) and the results were shown in FIGS. 5A-5B and Table 10.

Results on six molecules are retold here after patent publication US20210347873A1 (SHANGHAI PHARMAEXPLORER, published 2021).

T1 sequence (Q9Y275 134-285): as above
T2 sequence (Q9Y275 134-285): as above

Turning to mIgG Control (antibody), the MFI turned out to be 31 MFI in assay [1], 20.4 MFI in assay [3] and 30.7 MFI in assay [6]. Besides, the OD450 nm in assay [2] was 1.3 OD450 nm; in [4], 0.0695; in assay [5] it was 0.0595; in assay [7], 0.0659; in assay [8], 0.0708.

Regarding hIgG Control (antibody), the MFI in [1] is 33.1 MFI; in assay [3], 22 MFI; in assay [6], 33.4 MFI. The OD450 nm in assay [2] was 1.22 OD450 nm; in assay [4], 0.108; in [5], 0.111; in [7], 0.0956; in assay [8], 0.148.

B1: c97A3C2H4 (antibody, V domains shown)
VH: EVKLVESGGGLVQPGGSLKLSCAASGFTFSTYTMSWVRQTPEKRLEWVAYISYGGGSTSYPDTVKGRFTISRDNAKNTLYLQMSSLKSEDTAIYYCTRHVTVVENSMDYWGQGTSVTVSS
VL: DILLTQSPDILSVSPGERVSFSCRASQSIGTSIHWYQQRTNGSPRLLIKYVSESFSGTPSRFSGSGSGTAFTLTINSVESEDIADYYCQQTHSWPWTFGGGTKLEIK
notes: also called chimeric antibody c97A3C2H4
As to B1, the OD450 nm in assay [9] worked out at 2.35 OD450 nm; in assay [10], 3.33 OD450 nm; in [11], 2.34 OD450 nm; in assay [12], 1.91 OD450 nm; in assay [13], 0.194 OD450 nm; in assay [14], 1.79 OD450 nm. Further, the values for the OD450 nm in [15], in assay [16] and in assay [18] were 3.32 OD450 nm, 0.25 OD450 nm and 0.374 OD450 nm, respectively. Binding in [17] was characterised by a dissociation constant (Kd) of 446 pM. This molecule also returned an off-rate constant (koff) in assay [17] of 7.34e-05 s⁻¹. Besides, the kon in [17] is 165000 M⁻¹ s⁻¹.

B2: 97A3C2H4 (antibody, V domains shown)
VH: EVKLVESGGGLVQPGGSLKLSCAASGFTFSTYTMSWVRQTPEKRLEWVAYISYGGGSTSYPDTVKGRFTISRDNAKNTLYLQMSSLKSEDTAIYYCTRHVTVVENSMDYWGQGTSVTVSS
VL: DILLTQSPDILSVSPGERVSFSCRASQSIGTSIHWYQQRTNGSPRLLIKYVSESFSGTPSRFSGSGSGTAFTLTINSVESEDIADYYCQQTHSWPWTFGGGTKLEIK
notes: Mouse hybridoma antibody purified on Protein G
Regarding B2, the “EC50 (read off the curve)” value in [19] was around 200 pM.

B3: 111D10D6G3 (antibody, V domains shown)
VH: QVQLQQPGAELVKPGASVKMSCKASGYTFTRHWITWVKQRPGQGLEWIGDIFPGSGSINYNEKFKSEATLTVEKSSSTAYMQLSSLTSEDSAVYYCARGDVDVWGTGTTVTVSS
VL: DIQMTQSPSSLSASLGERVSLTCRASQEIRGYLSWLQQKPNGTIKRLIYAASTLDSGVPKRFSATRSGSDFSLTISSLESEDFADYYCLQYASYPFTFGSGTKLEIK
notes: as for B2
Turning to B3, the “EC50 (read off the curve)” value in assay [19] was around 200 pM.

B4: c8E7D9C7F5 (antibody, V domains shown)
VH: QVQLQQSGVELARPGASVKLSCKASGYTFTSYGISWVKQRTGQALEWIGEIYPRSGNTYYNEKFKGKATLTADKSSSTAYMELRSLTSEDSAVYFCARSGPITTLVATDYGMDYWGQGTSVTVSS
VL: DIVLTQSPASLAVSLGQRATISCRASKSVSTSSYSYMHWYQQKPGQPPKLLIKFASNLESGVPARFSGSGSGTDFTLNIHPVEEEDAATYYCQHSREFPYTFGGGTKLEIK
notes: also called chimeric antibody c8E7D9C7F5
With B4, the OD450 nm in [9] turned out to be 1.7 OD450 nm; in assay [10] it was 3.32 OD450 nm; in assay [11] it was 2.37 OD450 nm; in assay [12], 1.97 OD450 nm; in assay [13], 0.198 OD450 nm; in assay [14], 1.85 OD450 nm. Moreover, the OD450 nm stood at 3.24 OD450 nm in assay [15], 0.176 OD450 nm in assay [16] and 0.508 OD450 nm in assay [18]. The Kd in assay [17] was 2380 pM. In [17], this molecule showed a koff of 0.00109 s⁻¹. This molecule also showed a kon in [17] of 456000 M⁻¹ s⁻¹.

Broadly, the Kd is the concentration at which binding is half-saturated. Low readings indicate tighter binding, high ones weaker binding. Usually koff stands for the rate constant with which the complex falls apart. The low end stands for slow dissociation, the high end for fast dissociation. A word on the kon: it is the rate constant with which the complex forms. Lower therefore signals slow association. As a reminder, the EC50 (read off the curve) is the midpoint of the concentration-response curve.
